Measurements from the Human Domainome abundance scans (Beltran et al. 2025).

B1: POU domain, class 4, transcription factor 1, residues 266 to 347; numbered along this chain, Q01851 (parent)
chain: RELEAFAERFKQRRIKLGVTQADVGSALANLKIPGVGSLSQSTICRFESLTLSHNNMIALKPILQAWLEEAEGAQREKMNKP
B2: Syntaxin-binding protein 4, residues 493 to 538; numbered along this chain, Q6ZWJ1 (parent)
chain: LDMDCLPYGWEEAYTADGIKYFINHVTQTTSWIHPVMSVLNLSRSE

Variants of: B1
Experiment: abundance fitness (aPCA) (normalised: wild type 0, dead -1); higher = more abundant; growth selection in yeast, the domain comes from the species named
Conditions: Homo sapiens

Abundance fitness: each site, then its substitutions
A74: Y 0.002 | Q -0.029 | S 0.005 | W -0.137 | V -0.005 | R -0.008 | T -0.013
K78: G -0.036 | W 0.007 | I -0.026 | Y -0.106 | A 0.089 | L -0.012 | R 0.047 | Q -0.045 | D -0.153 | T -0.273 | V -0.019 | P -0.048 | E 0.035 | M 0.072 | F 0.003 | S -0.092
E77: P -0.08 | I -0.063 | T -0.064 | D 0.006 | G -0.025 | C -0.088 | H -0.092 | A -0.044 | S -0.024 | F -0.16 | W -0.145 | Q -0.02 | Y -0.009 | L -0.053 | V -0.005 | M 0.021
M79: Y -0.011 | G 0.009 | W -0.015 | I 0.008 | D -0.022 | K 0.039 | S -0.024 | N 0.023 | F 0.024 | P 0.029 | T -0.021 | A 0.004 | R -0.025 | V 0.007 | Q -0.03 | L 0.001
P82: K -0.047 | Y 0.095 | F -0.105 | W -0.116 | M 0.008 | L -0.123 | Q 0.01 | V -0.053 | T -0.001 | E -0.005 | G -0.011 | D 0.019 | A 0.086
Q75: A 0 | M -0.025 | P -0.063 | D -0.045 | E -0.01 | L -0.001 | H 0.041 | T -0.033 | F -0.043 | I -0.051 | V -0.025 | N -0.061 | C -0.015 | R -0.028 | Y -0.085 | W -0.077
K81: L 0.043 | I -0.112 | H -0.432 | C 0.1 | Q -0.042 | P -0.075 | W 0.027 | F 0.198 | M -0.059 | D -0.024 | V -0.047 | Y -0.224 | S -0.016 | A 0.148 | T 0.03 | G 0.021
N80: C 0.064 | E 0.078 | T -0.007 | M -0.004 | S 0.051 | D -0.007 | Y -0.037 | K -0.001 | R -0.032 | I -0.121 | W -0.089 | H 0.019 | L -0.026 | V 0.098 | G -0.003 | F -0.043 | A 0.117 | Q 0.091 | P 0.073
R76: E 0.016 | G 0.007 | V -0.009 | F -0.032 | W -0.056 | C 0.012 | Y -0.124 | L 0.012 | D -0.015 | T 0.008 | M 0.044 | A 0.03 | K -0.006 | P -0.002 | H -0.003 | Q -0.003 | I -0.029 | N 0.026

Variants of: B2
Experiment: as above
Conditions: Homo sapiens

Abundance fitness, by site and new letter:
W10: I -0.596 | C -1.01 | S -0.816 | Q -0.613 | M -0.918 | D -0.68 | G -0.716 | L -0.844 | N -0.615 | T -0.869 | V -0.651 | F -0.796 | A -0.667 | Y -0.774 | R -0.863 | P -0.741
P7: Q -0.903 | I -0.984 | L -0.711 | R -0.782 | T -0.483 | S -0.834 | W -0.629 | V -0.742 | K -0.649 | E -0.711 | F -0.616 | H -0.669 | N -0.714 | G -0.719 | A -0.646 | M -0.793
M3: E 0.144 | I -0.425 | T 0.287 | A -0.058 | G -0.084 | N 0.354 | F -0.069 | H -0.117 | L -0.036 | R 0.027 | Y -0.458 | C 0.117 | D -0.103 | Q 0.065 | W -0.692
Y8: Q -0.119 | W -0.371 | M -0.292 | R -0.34 | T -0.122 | L -0.367 | F -0.258 | P 0.157 | G -0.028 | E 0.326 | S 0.138 | I -0.08 | A 0.198 | H -0.094 | C -0.425 | K 0.109 | D 0.326
G9: W -0.699 | C -0.892 | A -0.803 | D -0.604 | K -0.807 | E -0.184 | R -0.846 | P -0.397 | H -0.86 | M -0.865 | Y -0.826 | N -0.849 | Q -0.908 | I -0.459 | T -0.833 | F -0.926 | L -0.636 | V -0.692
D4: L -0.638 | I -0.639 | Y -0.863 | T -0.535 | N -0.098 | G -0.348 | C -0.354 | F -0.613 | H -0.835 | K -0.543 | P -0.511 | V -0.766 | S -0.221 | W -0.499 | A -0.561 | E -0.16 | R -0.545
E11: I -0.502 | L -0.771 | Y -0.909 | G -0.827 | S -0.433 | T -0.733 | V -0.531 | R -0.537 | H -0.657 | A -0.747 | K -0.535 | F -0.555 | D -0.528 | W -0.696 | C -0.861 | Q -0.4 | M -0.793 | P -0.78
D2: I -0.698 | K -0.269 | V -0.576 | E -0.206 | T -0.334 | A -0.445 | L -0.424 | Q -0.48 | S -0.478 | R -0.603 | M -0.334 | P -0.985 | N -0.388 | F -0.849 | G -0.366 | C -0.699
C5: S 0.142 | V -0.155 | D 0.321 | F -0.11 | N -0.254 | A 0.238 | M -0.173 | R -0.18 | H -0.06 | P -0.291 | K 0.076 | G -0.04 | W -0.533 | E 0.234 | I -0.113 | Y -0.268
L6: N -0.375 | E -0.541 | Q -0.817 | D -0.405 | R -0.644 | A -0.707 | P -0.608 | K -0.266 | I -0.965 | Y -0.709 | M -0.692 | F -0.604 | H -0.844 | W -0.922 | T -0.737 | G -0.754 | S -0.816 | V -0.511
E12: Q -0.463 | K -0.953 | G -0.818 | A -0.767 | H -0.795 | V 0.12 | C -0.496 | M -0.361 | T -0.518 | L -0.804 | F -0.801 | R -0.804 | P -0.795 | W -0.744 | D -0.89 | S -0.619 | N -0.765 | I -0.273
L1: F -0.163 | R -0.874 | G -0.525 | Y -0.198 | W -0.334 | H -0.269 | E 0.068 | K 0.331 | M 0.148 | N -0.101 | S 0.28 | T -0.004
